# ± gives the standard deviation of the averaged measurements.
# Tested on: Saccharomyces cerevisiae
# Assay: protein stability index of tFT-peptide fusion (C-terminal peptide) (PSI (0-1 scale)); higher = more stable (slower turnover)
# Conditions: genetic background: wild type; temperature: 30 C
# Experimental: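 Multiplexed protein stability (MPS) profiling in S. cerevisiae. Random 12-aa peptides (tFT-X12 library) are fused to the C-terminus of a sfGFP-mCherry tandem fluorescent timer, after mCherry and a GGGS linker. Cells are FACS-sorted into 8 mCherry/sfGFP bins and deep-sequenced. The protein stability index (PSI) is the read-weighted bin average, scaled from 0 (unstable) to 1 (stable). Only peptides with >10 reads are reported; cells were grown at 30 °C in SC-His with glucose.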
# 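Note: PSI is a weighted mean of sequencing reads over stability bins, variants kept only with over 10 reads, mCherry proximal and sfGFP distal, peptide attached via GGGS linker.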
row,Sequence,protein stability index
1,LATLLIRLLGQA,0.496 ± 0.0088
2,VKTIRVTKSVGD,0.6941 ± 0.0057
3,WCGTLVDRGCSL,0.554 ± 0.026
4,VRVVGVSGGEGG,0.644 ± 0.027
5,GLWAEGCGGEVV,0.653 ± 0.0083
6,PPPSPSSPPLSL,0.717 ± 0.099
7,DKGTDKDDVKIM,0.686 ± 0.011
8,PPSPPFDFSPQN,0.716 ± 0.014
9,KKKEKKIKKTIK,0.724 ± 0.048
10,PQPPRPARLCFP,0.705 ± 0.028
11,EKKKKNKNQEKQ,0.671 ± 0.044
12,TWVGPIRISNQQ,0.639 ± 0.01
13,PFVSGFGRPGYC,0.751 ± 0.039
14,PSETPSPLTLCS,0.722 ± 0.037
15,RSRDDAGASLHL,0.6666 ± 0.0054
16,VWVGGGRRDPKY,0.735 ± 0.075
17,PLPLPLASSFPS,0.627 ± 0.059
18,ARSQTGRTYFSP,0.694 ± 0.062
19,SSIHSLRQVISI,0.614 ± 0.051
20,ILVAPAYYCWKV,0.642 ± 0.045
21,LKYEGPKYHMKR,0.691 ± 0.061
22,CVRPSFMSRSLR,0.719 ± 0.064
23,PPRPHPPPRPSS,0.74 ± 0.048
24,LLRYKWSRHLVG,0.47 ± 0.046
25,SPTAPPPRPFPP,0.679 ± 0.042

row,Sequence,protein stability index
1,PFALPPPSPFPP,0.7116 ± 0.0063
2,CARSFGLFGTAT,0.694 ± 0.075
3,GYTSGEEGAVTA,0.624 ± 0.016
4,GGALDQADGGRS,0.7269 ± 0.0014
5,WVVRVMYTSSGK,0.556 ± 0.035
6,LPQAVPCRTPPL,0.679 ± 0.054
7,KRRKKKSKERER,0.672 ± 0.015
8,GLEVGVRGVMGC,0.688 ± 0.033
9,DSRFMLYIHSSR,0.7132 ± 0.0038
10,APSQGPSRPGVV,0.708 ± 0.038
11,ALPPSPLLPTLP,0.702 ± 0.062
12,ITIRGLTGRFRQ,0.713 ± 0.17
13,FCIDSLNSFCFV,0.643 ± 0.057
14,SVPTPSSNPRVK,0.698 ± 0.05
15,KKKTKTQTGKKS,0.744 ± 0.016
16,NEPQDQLQEQAT,0.665 ± 0.069
17,RLRKEKGKKIQY,0.697 ± 0.073
18,LCCMFGLAGRGV,0.654 ± 0.0083
19,LKGVNPVNLHEL,0.66 ± 0.039
20,PFVAFLPPLSPP,0.702 ± 0.037
21,PSLQPPLHYPPP,0.6448 ± 0.0044
22,THPRPTLTRCST,0.734 ± 0.081
23,SVPPCSLPPLPP,0.6407 ± 0.0048
24,TLNSSPFTTPTI,0.717 ± 0.074
25,KGICALKIATGK,0.603 ± 0.032

row,Sequence,protein stability index
1,KGTQINNRCKLK,0.684 ± 0.078
2,KENKKNDRRDII,0.728 ± 0.023
3,GKILKGAASPSC,0.72 ± 0.019
4,DVAEAGPRPPPT,0.755 ± 0.091
5,AVGCLGKSRATL,0.662 ± 0.0088
6,VKEHRPQRNPSH,0.675 ± 0.016
7,SLGLALSLRSSV,0.6361 ± 0.0054
8,RNKHREEIERQT,0.672 ± 0.031
9,HPGPPPPPAAAA,0.679 ± 0.007
10,PGDPRARPRLCP,0.71 ± 0.033
11,RQCGKGGKEGAA,0.653 ± 0.051
12,AVFHPPPILPPP,0.70154 ± 0.00061
13,WIIRATCAGVSL,0.528 ± 0.032
14,PSGPPPSLFPSA,0.661 ± 0.052
15,GGGGRGVGAGGG,0.652 ± 0.061
16,ATVDLDLLSTCL,0.7 ± 0.02
17,VGELGVFAPGGK,0.5 ± 0.1
18,FARLTSSQGGKD,0.68 ± 0.025
19,CYMFFNPSFNRR,0.712 ± 0.017
20,EGINVEICISLL,0.573 ± 0.083
21,TLVPPPSPPPSP,0.636 ± 0.065
22,GPTRAIIFERRY,0.741 ± 0.17
23,REEGIEKKEKIR,0.678 ± 0.03
24,SEFDSVSRIVYY,0.705 ± 0.048
25,GKVGSLGLVLSP,0.682 ± 0.096

row,Sequence,protein stability index
1,HVVLPPRYCISR,0.696 ± 0.015
2,PLCCHRSTGCTL,0.676 ± 0.022
3,PIGLTCPASSVL,0.692 ± 0.046
4,PRAPPLPPSPSP,0.668 ± 0.011
5,PARQDRPPDHAS,0.729 ± 0.031
6,HRVNKKNCEEKT,0.631 ± 0.053
7,PTPHPHTGSLEG,0.651 ± 0.011
8,GTVLSVARGWCV,0.692 ± 0.11
9,SPLPPPSLPRPP,0.641 ± 0.017
10,GGGSLWWDVGYG,0.6649 ± 0.0016
11,SLPAFPPNTFMP,0.7 ± 0.017
12,RGNAMSFVCVGE,0.658 ± 0.096
13,GARRSAVPWSPK,0.723 ± 0.018
14,DTFLGSLFIFIR,0.522 ± 0.011
15,GSLRRSHYLLRA,0.588 ± 0.086
16,PVPPPPPPFSLP,0.727 ± 0.032
17,ATATPPAPPPSP,0.686 ± 0.011
18,AYVQPASRSPPP,0.735 ± 0.062
19,GSFLGVRPGNVF,0.828 ± 0.055
20,FCLSIFYRAFFD,0.537 ± 0.024
21,PHRPRDFALTPS,0.6905 ± 0.0048
22,SKQNNIEMKKYK,0.741 ± 0.036
23,LRLDFPPARPHS,0.697 ± 0.044
24,VTFPSAHSSRRF,0.71635 ± 0.00041
25,PSPSFLVFATSY,0.628 ± 0.027

row,Sequence,protein stability index
1,SLVLPSFSLFSR,0.728 ± 0.028
2,LVHVPVCFLSVL,0.557 ± 0.0021
3,SSSAPLPPSLPL,0.791 ± 0.16
4,KKNMIIRVMIGV,0.495 ± 0.074
5,CIIIIGRHSIWG,0.672 ± 0.057
6,VVVGVGGCVDMG,0.676 ± 0.014
7,CKCKFLGLSATM,0.613 ± 0.013
8,PIPLPLSPPLPT,0.73 ± 0.011
9,GGGYHLGSCDKL,0.624 ± 0.025
10,DSFLFVPREVAD,0.687 ± 0.013
11,ECGAGRVYGDPW,0.652 ± 0.063
12,RRHGDVGFGVGW,0.82 ± 0.1
13,GGWGWRSGTEGE,0.665 ± 0.012
14,GGGRYCADDGGR,0.763 ± 0.051
15,EKKKNKTQLKTK,0.667 ± 0.024
16,WSPFSLISLSPP,0.725 ± 0.099
17,HRYSGSTFSAVL,0.728 ± 0.11
18,GSQPSQRRSSGA,0.679 ± 0.014
19,IWAEYIDAVLIN,0.6 ± 0.061
20,DLQKKKEILSQK,0.707 ± 0.029
21,VVFGLESCDWRG,0.669 ± 0.0093
22,CTVPGLTPKCIY,0.581 ± 0.042
23,GGFASGLCGGVI,0.728 ± 0.087
24,LPRSAPLHFPAC,0.688 ± 0.02
25,LFYYLFRYFFPP,0.548 ± 0.0094

row,Sequence,protein stability index
1,TVFDPLGLPALL,0.617 ± 0.04
2,SLYPPPAPRASP,0.773 ± 0.036
3,KQKARRARGKEG,0.65 ± 0.024
4,PTGQSSVESGAG,0.693 ± 0.088
5,VRLLAESWEGGR,0.702 ± 0.017
6,TRLKKTEKTKER,0.739 ± 0.025
7,PPTPLAASPRPS,0.722 ± 0.12
8,RGFGGVLGRVFL,0.725 ± 0.017
9,YFSSGGITVSLC,0.664 ± 0.066
10,GRCLSGRVVGGG,0.7145 ± 0.0014
11,FVGSSFELRLPG,0.692 ± 0.057
12,CDLISPAHLVLG,0.678 ± 0.01
13,EIGWTEGGECVG,0.632 ± 0.051
14,APCRSLLADLAL,0.736 ± 0.036
15,PPPLPPPPPPSP,0.782 ± 0.083
16,KSEKKKKRKEKK,0.718 ± 0.052
17,PLILFLSLSRSV,0.613 ± 0.066
18,ALTALQTFRITL,0.638 ± 0.014
19,GGCCGRVWGSVE,0.71 ± 0.054
20,RGPPIPTLRYQH,0.746 ± 0.079
21,IQLRPFLSSPCR,0.609 ± 0.035
22,PPHLPPPRPKPP,0.592 ± 0.028
23,PTPHTTHPQNNT,0.729 ± 0.0062
24,GDVLLLVGAGER,0.706 ± 0.1
25,HAPALSSTPRLL,0.6836 ± 0.0064

row,Sequence,protein stability index
1,LSTCSFSFFLHT,0.66 ± 0.019
2,TDWLMQRILRPF,0.718 ± 0.028
3,RSNLGLNLVLAI,0.591 ± 0.031
4,GGGGGGGGCGVI,0.77 ± 0.08
5,PYFSLFSRRSLN,0.539 ± 0.02
6,PPYSQPSSTPPH,0.706 ± 0.092
7,VQVRPVVTVPSK,0.7 ± 0.068
8,PPRYLCLGPGPC,0.691 ± 0.03
9,PPTPPTSHPSPR,0.696 ± 0.027
10,AMAMSSGQCFSS,0.67674 ± 0.00043
11,PPPPPPPFRPPT,0.651 ± 0.017
12,PLPLPPPPPLPL,0.657 ± 0.041
13,GRVRGVEGIGKG,0.663 ± 0.018
14,PLPSHPPRPLPP,0.67 ± 0.05
15,KLSTGRGRTGYV,0.698 ± 0.072
16,KDKRKAETKSRN,0.688 ± 0.037
17,DDPGPSTHPRSA,0.63 ± 0.0069
18,EPNSPTYLSMLI,0.637 ± 0.018
19,AFICGWSVGFGW,0.697 ± 0.0072
20,LGVWGGGRGVRG,0.7206 ± 0.0051
21,EEVAISFFFLSL,0.468 ± 0.055
22,GWSVWFGLGGVW,0.689 ± 0.022
23,TRCGGRWGEGWR,0.72 ± 0.028
24,SPTSTILKSYTR,0.659 ± 0.086
25,KTQKYEIKNLKK,0.581 ± 0.082

row,Sequence,protein stability index
1,WSYGHVPYDYPF,0.73 ± 0.022
2,PLSPSFPPLSPP,0.78 ± 0.12
3,GQGEGRGKIKKG,0.782 ± 0.037
4,PSCPAFPSPPPS,0.696 ± 0.014
5,FHMPRSSPFLTG,0.74 ± 0.054
6,SFTSSFPGSSPS,0.703 ± 0.058
7,GSTSLILSMSPA,0.693 ± 0.027
8,PPDPPLHPPPSS,0.733 ± 0.13
9,GLVWLGFWCYPL,0.55646 ± 6.9e-05
10,QTTKRKKKAKKK,0.675 ± 0.089
11,VGPLIGQVGIDT,0.748 ± 0.014
12,AGWPAGARARAP,0.712 ± 0.016
13,PPNLYRGVQGPA,0.682 ± 0.0099
14,GCCWGCRIGEAV,0.6557 ± 0.0052
15,RNKKDIKIQIKR,0.68 ± 0.049
16,TWMRIRLFRFIP,0.5744 ± 0.0011
17,VWCAFNLLFARQ,0.574 ± 0.032
18,VGWCTGWFVGLV,0.6652 ± 0.0063
19,PLSVPHQPLCPV,0.686 ± 0.028
20,SPSSPPPPPPPA,0.833 ± 0.033
21,KAQKKGRHSKEL,0.712 ± 0.0059

# From the supplement of paper PMC10724198
